Patent publication US20240343771A1 (Chugai, published 2024)

T1: human IL-12 (human, UniProt P29460 23-328; P29459 23-219)
T1 construct: also called Interleukin-12
T1 sequence 1: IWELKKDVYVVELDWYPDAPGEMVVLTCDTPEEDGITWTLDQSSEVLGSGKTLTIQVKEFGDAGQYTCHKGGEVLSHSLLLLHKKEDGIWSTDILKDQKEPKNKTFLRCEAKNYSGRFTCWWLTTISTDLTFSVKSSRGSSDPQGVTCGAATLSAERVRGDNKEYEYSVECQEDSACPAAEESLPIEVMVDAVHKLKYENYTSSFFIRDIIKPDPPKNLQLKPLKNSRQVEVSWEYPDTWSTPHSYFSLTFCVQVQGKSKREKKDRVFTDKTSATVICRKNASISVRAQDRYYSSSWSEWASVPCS
T1 sequence 2: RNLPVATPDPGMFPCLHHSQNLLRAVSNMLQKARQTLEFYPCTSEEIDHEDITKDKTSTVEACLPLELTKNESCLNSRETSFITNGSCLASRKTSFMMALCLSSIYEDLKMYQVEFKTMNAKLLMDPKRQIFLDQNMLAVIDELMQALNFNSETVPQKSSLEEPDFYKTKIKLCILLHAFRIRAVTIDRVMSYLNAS


Biological target: T1, human IL-12
Assay: SPR (Biacore T200), 37 C, pH 7.4; captured antibody, IL-12 analyte
Method: The affinity of anti-IL-12 antibodies binding to human IL-12 at pH 7.4 were determined at 37 degrees C. using Biacore T200 instrument (Cytiva). Anti-human Fc antibody (Cytiva) was immobilized onto all flow cells (FCs) of a CM4 sensor chip using amine coupling kit (Cytiva). All antibodies and analytes were prepared in ACES pH 7.4 containing 20 mM ACES, 150 mM NaCl, 0.05% Tween 20, 0.005% NaN₃. Each antibody was captured onto the sensor surface by anti-human Fc antibody. Antibody capture levels were aimed at 50 response unit (RU). 5 nM of human IL-12 were injected as analyte, followed by dissociation. Sensor surface was regenerated each cycle with 3M MgCl₂. […] Based on the results in Table 9, it is observed that binding kinetics of anti-IL-12 antibody AbI variants towards IL-12 were not drastically changed compared to control (−/−).

| Kd | Binder |
| --- | --- |
| 3.48 nM | Anti-IL-12 antibody Ab1 variant F100aI VH/L46Q, Y49A VL (antibody, name in Kabat numbering, V domains shown, Ab1 with VH/VL interface substitutions; Kabat numbering) VH: QVQLVQSGAEVKKPGSSVKVSCKASGGTFSDYYLHWVRQAPGQGLEWMGWIDPENGDTEYAPKFQGRVTITADESTSTAYMELSSLRSEDTAVYYCARNKELRYIDVWGQGTLVTVSS VL: DIVMTQSPLSLPVTPGEPASISCRASQSISINLHWYQQKPGQAPRQLIAFASQSISGVPSRFSGSGSGTDFTLTISSLQPEDFATYYCQQSNSFPLTFGQGTKVEIKR |
| 1.44 nM | Anti-IL-12 antibody Ab1 variant F100aI VH/Y49A, F98L VL (antibody, name in Kabat numbering, V domains shown, Ab1 with VH/VL interface substitutions; Kabat numbering) VH: QVQLVQSGAEVKKPGSSVKVSCKASGGTFSDYYLHWVRQAPGQGLEWMGWIDPENGDTEYAPKFQGRVTITADESTSTAYMELSSLRSEDTAVYYCARNKELRYIDVWGQGTLVTVSS VL: DIVMTQSPLSLPVTPGEPASISCRASQSISINLHWYQQKPGQAPRLLIAFASQSISGVPSRFSGSGSGTDFTLTISSLQPEDFATYYCQQSNSFPLTLGQGTKVEIKR |
| 1.25 nM | Anti-IL-12 antibody Ab1 variant F100aI VH/P44A, Y49A VL (antibody, name in Kabat numbering, V domains shown, Ab1 with VH/VL interface substitutions; Kabat numbering) VH: QVQLVQSGAEVKKPGSSVKVSCKASGGTFSDYYLHWVRQAPGQGLEWMGWIDPENGDTEYAPKFQGRVTITADESTSTAYMELSSLRSEDTAVYYCARNKELRYIDVWGQGTLVTVSS VL: DIVMTQSPLSLPVTPGEPASISCRASQSISINLHWYQQKPGQAARLLIAFASQSISGVPSRFSGSGSGTDFTLTISSLQPEDFATYYCQQSNSFPLTFGQGTKVEIKR |
| 1.27 nM | Anti-IL-12 antibody Ab1 variant L45A VH/- (antibody, name in Kabat numbering, V domains shown, Ab1 with VH/VL interface substitutions; Kabat numbering) VH: QVQLVQSGAEVKKPGSSVKVSCKASGGTFSDYYLHWVRQAPGQGAEWMGWIDPENGDTEYAPKFQGRVTITADESTSTAYMELSSLRSEDTAVYYCARNKELRYFDVWGQGTLVTVSS VL: DIVMTQSPLSLPVTPGEPASISCRASQSISINLHWYQQKPGQAPRLLIYFASQSISGVPSRFSGSGSGTDFTLTISSLQPEDFATYYCQQSNSFPLTFGQGTKVEIKR |
| 0.793 nM | Anti-IL-12 antibody Ab1 variant G44Q VH/- (antibody, name in Kabat numbering, V domains shown, Ab1 with VH/VL interface substitutions; Kabat numbering) VH: QVQLVQSGAEVKKPGSSVKVSCKASGGTFSDYYLHWVRQAPGQQLEWMGWIDPENGDTEYAPKFQGRVTITADESTSTAYMELSSLRSEDTAVYYCARNKELRYFDVWGQGTLVTVSS VL: DIVMTQSPLSLPVTPGEPASISCRASQSISINLHWYQQKPGQAPRLLIYFASQSISGVPSRFSGSGSGTDFTLTISSLQPEDFATYYCQQSNSFPLTFGQGTKVEIKR |
| 2.1 nM | Anti-IL-12 antibody Ab1 variant F100aI VH/Y49A, Y87L VL (antibody, name in Kabat numbering, V domains shown, Ab1 with VH/VL interface substitutions; Kabat numbering) VH: QVQLVQSGAEVKKPGSSVKVSCKASGGTFSDYYLHWVRQAPGQGLEWMGWIDPENGDTEYAPKFQGRVTITADESTSTAYMELSSLRSEDTAVYYCARNKELRYIDVWGQGTLVTVSS VL: DIVMTQSPLSLPVTPGEPASISCRASQSISINLHWYQQKPGQAPRLLIAFASQSISGVPSRFSGSGSGTDFTLTISSLQPEDFATYLCQQSNSFPLTFGQGTKVEIKR |
| 2.23 nM | Anti-IL-12 antibody Ab1 variant L45Q VH/A43Q, Y49A VL (antibody, name in Kabat numbering, V domains shown, Ab1 with VH/VL interface substitutions; Kabat numbering) VH: QVQLVQSGAEVKKPGSSVKVSCKASGGTFSDYYLHWVRQAPGQGQEWMGWIDPENGDTEYAPKFQGRVTITADESTSTAYMELSSLRSEDTAVYYCARNKELRYFDVWGQGTLVTVSS VL: DIVMTQSPLSLPVTPGEPASISCRASQSISINLHWYQQKPGQQPRLLIAFASQSISGVPSRFSGSGSGTDFTLTISSLQPEDFATYYCQQSNSFPLTFGQGTKVEIKR |
| 3.68 nM | Anti-IL-12 antibody Ab1 variant F100aI VH/L46Q, Y49A, Y87M VL (antibody, name in Kabat numbering, V domains shown, Ab1 with VH/VL interface substitutions; Kabat numbering) VH: QVQLVQSGAEVKKPGSSVKVSCKASGGTFSDYYLHWVRQAPGQGLEWMGWIDPENGDTEYAPKFQGRVTITADESTSTAYMELSSLRSEDTAVYYCARNKELRYIDVWGQGTLVTVSS VL: DIVMTQSPLSLPVTPGEPASISCRASQSISINLHWYQQKPGQAPRQLIAFASQSISGVPSRFSGSGSGTDFTLTISSLQPEDFATYMCQQSNSFPLTFGQGTKVEIKR |
| 1.3 nM | Anti-IL-12 antibody Ab1 variant L45Q VH/- (antibody, name in Kabat numbering, V domains shown, Ab1 with VH/VL interface substitutions; Kabat numbering) VH: QVQLVQSGAEVKKPGSSVKVSCKASGGTFSDYYLHWVRQAPGQGQEWMGWIDPENGDTEYAPKFQGRVTITADESTSTAYMELSSLRSEDTAVYYCARNKELRYFDVWGQGTLVTVSS VL: DIVMTQSPLSLPVTPGEPASISCRASQSISINLHWYQQKPGQAPRLLIYFASQSISGVPSRFSGSGSGTDFTLTISSLQPEDFATYYCQQSNSFPLTFGQGTKVEIKR |
